Assay results published in patent US20130288923, “Nucleotide-Based Probes and Methods for the Detection and Quantification of Macromolecules and Other Analytes” (THE REGENTS OF THE UNIVERSITY OF CALIFORNIA, published 2013).

Target: TATA binding protein (TBP) (UniProt P20226 P20226:1-339)
Assay: square wave voltammetry; nM detection in buffer and in 250 ug/mL HeLa nuclear extract
Conditions: tags: recombinantly expressed and purified (Bonham 2009); label: 5'-C6-thiol (gold electrode), internal methylene blue; double stem-loop / single stem-loop switch containing TBP recognition duplex
Experimental: The ability of the TBP transcription factor electrochemical probe to function in HeLa nuclear cell extract was also tested (FIG. 14(b). The probe directed against TBP was titrated with its target protein against a background of 250 μg/mL crude HeLa nuclear extract (FIG. 14(b), producing a binding curve similar to that observed in buffer (FIG. 14(b). This binding curve was slightly offset from the curve obtained in buffer. Without being limited to any particular theory, a possible explanation for this shift was that this was a contribution from the endogenous TBP present in cell extract. The TBP transcription factor electrochemical probe provided the convenient quantification of transcription factors in cell extract. The sensor's response in buffer, cell extract and, finally, extract to which a large excess of TBP had been added were measured. These measurements were used to calculate the concentration of TF in the sample, C, via the following relationship: […]

TATA binding protein (TBP), sequence (P20226 whole entry, one chain of several): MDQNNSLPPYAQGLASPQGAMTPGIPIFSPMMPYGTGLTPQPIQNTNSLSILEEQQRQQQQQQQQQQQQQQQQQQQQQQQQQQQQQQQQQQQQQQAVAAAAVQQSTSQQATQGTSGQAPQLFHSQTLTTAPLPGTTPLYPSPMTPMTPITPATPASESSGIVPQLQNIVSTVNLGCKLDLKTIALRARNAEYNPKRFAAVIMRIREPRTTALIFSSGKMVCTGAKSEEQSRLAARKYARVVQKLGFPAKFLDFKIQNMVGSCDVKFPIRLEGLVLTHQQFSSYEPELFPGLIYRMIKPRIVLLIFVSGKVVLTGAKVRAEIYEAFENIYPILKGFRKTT

B1: TBP electrochemical probe (structured_DNA)
DNA: GAATAGGTTCCTATAAAAGGTTGGTTTTATAAACCTATCCTATTC
  binding result: binds
